Test results from patent CN117736312A (SHANGHAI BOVAX BIOLOGICAL SCIENCE & TECH CO LTD, dated 2024).

What was measured:
Test in all cases: sandwich ELISA (rabbit anti-L1 capture)
HPV18L1 = biological target: T1, HPV18L1 (human papillomavirus type 18, UniProt P06794 62-568)
T1 sequence: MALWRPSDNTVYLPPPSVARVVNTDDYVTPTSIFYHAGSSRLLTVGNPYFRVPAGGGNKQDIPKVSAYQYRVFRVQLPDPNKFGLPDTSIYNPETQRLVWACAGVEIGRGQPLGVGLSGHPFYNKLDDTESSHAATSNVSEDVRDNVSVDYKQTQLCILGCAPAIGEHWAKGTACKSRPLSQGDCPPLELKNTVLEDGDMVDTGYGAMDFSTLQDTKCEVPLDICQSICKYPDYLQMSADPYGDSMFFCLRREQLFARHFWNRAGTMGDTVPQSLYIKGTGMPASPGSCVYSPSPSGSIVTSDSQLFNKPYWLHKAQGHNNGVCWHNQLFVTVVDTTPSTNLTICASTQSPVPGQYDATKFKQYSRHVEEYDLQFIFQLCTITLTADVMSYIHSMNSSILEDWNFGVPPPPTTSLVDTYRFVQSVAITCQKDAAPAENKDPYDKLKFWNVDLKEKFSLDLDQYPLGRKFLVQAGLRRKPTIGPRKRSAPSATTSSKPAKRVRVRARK

HPV6L1 = biological target: T2, HPV6L1 (human papillomavirus type 6, UniProt P69899 1-500)
T2 construct: also called HPV 6 L1原液
T2 sequence: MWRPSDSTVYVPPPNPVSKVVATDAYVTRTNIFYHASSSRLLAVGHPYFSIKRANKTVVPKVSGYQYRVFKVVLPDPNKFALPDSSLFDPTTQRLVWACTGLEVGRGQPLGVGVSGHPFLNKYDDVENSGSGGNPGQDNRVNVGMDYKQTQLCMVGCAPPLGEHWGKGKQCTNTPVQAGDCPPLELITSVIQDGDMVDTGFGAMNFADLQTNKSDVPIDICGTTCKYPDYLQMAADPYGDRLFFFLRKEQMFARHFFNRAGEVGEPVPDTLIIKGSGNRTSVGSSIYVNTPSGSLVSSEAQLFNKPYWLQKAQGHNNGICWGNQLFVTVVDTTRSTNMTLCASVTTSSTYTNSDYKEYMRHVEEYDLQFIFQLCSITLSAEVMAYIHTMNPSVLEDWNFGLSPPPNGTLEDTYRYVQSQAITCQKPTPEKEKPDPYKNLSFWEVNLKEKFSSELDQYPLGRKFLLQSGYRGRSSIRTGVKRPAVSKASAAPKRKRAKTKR

HPV58L1 = biological target: T3, HPV58L1 (human papillomavirus type 58, UniProt P26535 27-524)
T3 sequence: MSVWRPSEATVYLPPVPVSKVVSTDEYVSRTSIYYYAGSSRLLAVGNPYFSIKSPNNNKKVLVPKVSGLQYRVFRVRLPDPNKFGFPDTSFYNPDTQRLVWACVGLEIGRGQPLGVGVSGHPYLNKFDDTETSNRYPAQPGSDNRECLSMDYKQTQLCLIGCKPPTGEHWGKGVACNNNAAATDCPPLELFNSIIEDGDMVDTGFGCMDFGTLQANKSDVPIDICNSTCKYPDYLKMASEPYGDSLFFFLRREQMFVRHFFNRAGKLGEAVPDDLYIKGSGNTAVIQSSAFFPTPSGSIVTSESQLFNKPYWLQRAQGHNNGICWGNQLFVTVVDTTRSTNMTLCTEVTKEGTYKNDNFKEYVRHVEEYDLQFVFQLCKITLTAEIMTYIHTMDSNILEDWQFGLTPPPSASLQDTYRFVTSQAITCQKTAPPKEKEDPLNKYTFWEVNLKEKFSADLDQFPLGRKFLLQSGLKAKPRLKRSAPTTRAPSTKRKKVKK

HPV31L1 = biological target: T4, HPV31L1 (human papillomavirus type 31, UniProt P17388 1-504)
T4 sequence: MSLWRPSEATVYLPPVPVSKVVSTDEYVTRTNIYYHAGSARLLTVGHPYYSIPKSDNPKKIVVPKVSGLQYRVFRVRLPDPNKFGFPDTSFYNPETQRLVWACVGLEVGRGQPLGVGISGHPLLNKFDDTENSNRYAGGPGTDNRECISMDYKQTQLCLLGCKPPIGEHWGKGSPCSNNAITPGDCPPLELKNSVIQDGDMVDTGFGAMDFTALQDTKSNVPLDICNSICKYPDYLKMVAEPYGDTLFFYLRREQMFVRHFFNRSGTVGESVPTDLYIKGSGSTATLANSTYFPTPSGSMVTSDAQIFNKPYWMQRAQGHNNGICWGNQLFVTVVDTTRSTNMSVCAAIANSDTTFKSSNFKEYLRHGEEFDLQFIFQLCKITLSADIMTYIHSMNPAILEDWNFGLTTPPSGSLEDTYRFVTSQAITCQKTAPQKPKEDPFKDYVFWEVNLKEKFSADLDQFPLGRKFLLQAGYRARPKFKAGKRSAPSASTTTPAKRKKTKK

HPV56L1 = biological target: T5, HPV56L1 (human papillomavirus type 56, UniProt P36743 36-534)
T5 sequence: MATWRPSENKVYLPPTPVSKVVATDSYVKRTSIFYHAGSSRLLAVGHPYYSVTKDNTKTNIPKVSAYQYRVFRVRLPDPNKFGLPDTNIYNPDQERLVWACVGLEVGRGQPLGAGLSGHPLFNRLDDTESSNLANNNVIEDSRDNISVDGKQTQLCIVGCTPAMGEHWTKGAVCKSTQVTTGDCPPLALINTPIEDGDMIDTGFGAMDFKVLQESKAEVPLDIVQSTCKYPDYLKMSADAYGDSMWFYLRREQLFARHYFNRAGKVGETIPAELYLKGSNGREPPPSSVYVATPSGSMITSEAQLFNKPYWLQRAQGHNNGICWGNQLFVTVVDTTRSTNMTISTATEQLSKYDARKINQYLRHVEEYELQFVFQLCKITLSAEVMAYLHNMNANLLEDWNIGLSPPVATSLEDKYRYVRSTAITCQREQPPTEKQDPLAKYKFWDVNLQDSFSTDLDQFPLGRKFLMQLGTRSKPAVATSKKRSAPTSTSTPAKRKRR

B1: HPV 59编号为30单克隆抗体 (antibody, V domains shown)
VH: QIQLVQSGPELKKPGETVKISCKASGYTFTDYSMHWVKQAPGKGLKWMGWINTETGEPTYADDFKGRFAFSLETSASTAYLQINNLKIEDTATYFCTRDGYVWYFDVWGAGTTVTVSS
VL: QIVLSQSPAILSASPGEKVTMTCRASSSVNYMHWYQQKPGSSPKPWIYATSNLASGVPARFSGSGSGTSYSLTISRVEAEDAATYYCQQWSSNPIFTFGSGTKLEIK
notes: Mouse hybridoma antibody tested as cell supernatant; also called 59H30
- binding result (HPV18L1): no binding (tested: 原液40μg/ml; 细胞上清1:100)
- binding result (HPV6L1): no binding (tested: 原液40μg/ml; 细胞上清1:100)
- binding result (HPV58L1): no binding (tested: 原液40μg/ml; 细胞上清1:100)
- binding result (HPV31L1): no binding (tested: 原液40μg/ml; 细胞上清1:100)
- binding result (HPV56L1): no binding (tested: 原液40μg/ml; 细胞上清1:100)
